Source: US20240182582A1 (Janssen / Centocor, published 2024)
Substitutions are numbered along the chain they refer to.

Legend:
Cyno NKG2d (NKGW2.001) = biological target: T1, Cyno NKG2d (NKGW2.001) (cynomolgus monkey, UniProt P61252 80-216, limits assumed); assay: surface plasmon resonance
T1 sequence (looked up): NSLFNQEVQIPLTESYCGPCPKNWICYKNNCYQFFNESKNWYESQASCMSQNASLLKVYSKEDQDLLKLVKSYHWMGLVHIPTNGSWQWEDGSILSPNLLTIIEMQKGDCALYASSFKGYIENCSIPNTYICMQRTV

[1] = biological target: T2, NKGW1 (human NKG2d80-216 extracellular region with N-term hexahistidine tag) (human, UniProt P26718 80-216); assay: surface plasmon resonance
T2 construct: also called human NKG2d (NKGW1)
T2 sequence: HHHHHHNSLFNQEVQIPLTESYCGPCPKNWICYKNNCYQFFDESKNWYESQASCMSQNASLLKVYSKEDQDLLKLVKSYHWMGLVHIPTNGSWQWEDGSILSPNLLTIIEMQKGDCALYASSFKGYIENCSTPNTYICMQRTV

N46W3 (NKp46 D1) = biological target: T3, N46W3 (NKp46 D1) (UniProt O76036 22-120, limits assumed); assay: binding kinetics, method not named
T3 construct: domain: D1
T3 sequence (O76036 22-120 limits assumed): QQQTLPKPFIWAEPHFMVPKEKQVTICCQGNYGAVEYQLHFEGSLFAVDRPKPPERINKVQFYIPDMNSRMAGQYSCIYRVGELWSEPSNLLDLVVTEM

BCMA = biological target: T4, BCMA (UniProt Q02223 1-184, limits assumed); assay: cell-based or functional assay
T4 sequence (looked up): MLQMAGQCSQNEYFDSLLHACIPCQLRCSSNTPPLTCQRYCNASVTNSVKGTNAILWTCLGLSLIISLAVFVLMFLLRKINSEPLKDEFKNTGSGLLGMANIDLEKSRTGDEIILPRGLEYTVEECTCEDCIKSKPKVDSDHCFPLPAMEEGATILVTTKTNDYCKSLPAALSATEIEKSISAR

GPRC5d = GPRC5d (UniProt Q9NZD1 1-345, limits assumed); assay: cell-based or functional assay
Chain of GPRC5d (Q9NZD1 whole entry): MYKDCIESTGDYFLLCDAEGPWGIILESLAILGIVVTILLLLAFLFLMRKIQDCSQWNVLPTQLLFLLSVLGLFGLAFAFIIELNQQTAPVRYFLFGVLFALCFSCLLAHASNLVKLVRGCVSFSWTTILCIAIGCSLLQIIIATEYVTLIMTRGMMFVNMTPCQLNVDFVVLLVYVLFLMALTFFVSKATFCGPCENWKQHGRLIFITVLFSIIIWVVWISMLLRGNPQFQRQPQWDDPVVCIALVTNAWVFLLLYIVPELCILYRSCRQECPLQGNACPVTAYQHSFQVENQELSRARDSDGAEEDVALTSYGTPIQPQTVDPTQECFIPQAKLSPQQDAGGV

[2] = biological target: NKp46 on NKL cells / NK cells (human, UniProt O76036 22-304); assay: cell-based or functional assay
Chain of NKp46 on NKL cells / NK cells (O76036 22-304): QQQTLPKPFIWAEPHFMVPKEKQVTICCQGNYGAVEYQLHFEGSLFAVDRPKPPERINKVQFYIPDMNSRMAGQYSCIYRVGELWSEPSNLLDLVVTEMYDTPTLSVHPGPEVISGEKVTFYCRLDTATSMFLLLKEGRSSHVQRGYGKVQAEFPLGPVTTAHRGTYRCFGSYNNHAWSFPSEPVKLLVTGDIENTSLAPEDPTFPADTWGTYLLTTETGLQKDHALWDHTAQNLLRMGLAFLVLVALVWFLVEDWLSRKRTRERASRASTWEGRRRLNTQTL

B1: NKGB125 (antibody, human IgG1, V domains shown)
VH: EVQLLESGGGLVQPGGSLRLSCAASGFTFSIYAMTWVRQAPGKGLEWVSIISGSGDHTFYADSVKGRFTISRDNSRNTLYLQMDSLRAEDTAVYYCAKEGKWVQLSHFANWGQGTLVTVSS
VL: SYVLTQPPSVSVAPGQTARITCGGNNIGSKSVHWYQQKAGQAPVLVVYDDSDRPSGIPERFSGSNSGNTATLTISRVEAGDEADYYCQVWDGRSDHVVFGGGTKLTVL
notes: OmniRat hybridoma clone; v-regions cloned into human IgG1 sigma and lambda constant regions; also called NKGB125.002; NKGY1_045_F04
Kd (Cyno NKG2d (NKGW2.001)): 0.1 nM
koff (Cyno NKG2d (NKGW2.001)): 5.84e-05 s⁻¹
kon (Cyno NKG2d (NKGW2.001)): 571000 M⁻¹ s⁻¹
Kd [1]: 0.05 nM
koff [1]: 3.85e-05 s⁻¹
kon [1]: 751000 M⁻¹ s⁻¹

B2: N46B105 (antibody, V domains shown)
VH: QLQLQESGPGPVRPSETLSLTCTVSGDSIRSSSYYWGWIRQPPGKGLDWIGSIYYTGSTYYNPSLMSRVTISVDTSKNQFSLKLSSVTAADTAVYYCASPGYSSGWSIDYWGQGTLVTVSS
VL: DIQLTQSPSFLSASVGDRVTITCRASQGISSYLAWYQQKPGKAPKLLIYVASTLQSGVPSRFSGSGSGTEFTLTISSLQPEDFATYYCQQLNSYPRMTFGGGTKVEIK
notes: also called VR000044289
Kd (N46W3 (NKp46 D1)): 3.5 nM

B3: NG2BB9 (bispecific antibody, human IgG1, kappa)
heavy: EVQLVQSGAEVKKPGESLKISCKGSGYSFTSYWIGWVRQMPGKGLEWMGIIYPGDSYTRYSPSFQGQVTISADKSISTAYLQWSSLKASDTAMYYCARGGVSASGNYRALDYWGQGTLVTVSSASTKGPSVFPLAPSSKSTSGGTAALGCLVKDYFPEPVTVSWNSGALTSGVHTFPAVLQSSGLYSLSSVVTVPSSSLGTQTYICNVNHKPSNTKVDKKVEPKSCDKTHTCPPCPAPELLGGPSVFLFPPKPKDTLMISRTPEVTCVVVDVSHEDPEVKFNWYVDGVEVHNAKTKPREEQYNSTYRVVSVLTVLHQDWLNGKEYKCKVSNKALPAPIEKTISKAKGQPREPQVYVYPPSREEMTKNQVSLTCLVKGFYPSDIAVEWESNGQPENNYKTTPPVLDSDGSFALVSKLTVDKSRWQQGNVFSCSVMHEALHNHYTQKSLSLSPGK
light: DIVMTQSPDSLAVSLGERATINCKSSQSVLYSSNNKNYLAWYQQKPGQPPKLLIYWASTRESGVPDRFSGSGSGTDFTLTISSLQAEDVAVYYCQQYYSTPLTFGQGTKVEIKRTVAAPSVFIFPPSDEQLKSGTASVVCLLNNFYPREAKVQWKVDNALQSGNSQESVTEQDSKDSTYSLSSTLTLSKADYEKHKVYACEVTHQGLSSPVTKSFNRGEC
chain: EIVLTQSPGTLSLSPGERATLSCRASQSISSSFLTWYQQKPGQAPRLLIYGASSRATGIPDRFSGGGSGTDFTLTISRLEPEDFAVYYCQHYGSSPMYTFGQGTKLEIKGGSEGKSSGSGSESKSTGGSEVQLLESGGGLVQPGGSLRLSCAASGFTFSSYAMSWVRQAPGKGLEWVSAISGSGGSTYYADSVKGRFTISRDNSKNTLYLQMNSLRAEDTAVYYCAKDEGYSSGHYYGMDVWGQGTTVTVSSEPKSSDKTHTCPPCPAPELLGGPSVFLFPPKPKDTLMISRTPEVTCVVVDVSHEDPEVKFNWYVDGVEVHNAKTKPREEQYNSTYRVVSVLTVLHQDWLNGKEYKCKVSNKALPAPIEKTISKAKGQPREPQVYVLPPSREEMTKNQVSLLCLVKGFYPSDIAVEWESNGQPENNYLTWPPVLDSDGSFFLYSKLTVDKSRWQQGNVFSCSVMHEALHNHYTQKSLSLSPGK
IC50 for BsAb cytotoxicity, H929/GFP target cells with PBMC effectors (BCMA): 0.00722 nM

B4: NG2GB24 (bispecific antibody, human IgG1, kappa)
heavy: B3 heavy
light: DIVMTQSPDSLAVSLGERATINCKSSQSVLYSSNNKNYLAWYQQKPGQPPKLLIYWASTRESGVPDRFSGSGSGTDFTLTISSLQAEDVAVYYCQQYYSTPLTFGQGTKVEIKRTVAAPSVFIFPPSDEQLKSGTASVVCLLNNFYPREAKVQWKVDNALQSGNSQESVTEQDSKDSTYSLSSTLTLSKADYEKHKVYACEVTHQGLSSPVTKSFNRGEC
chain: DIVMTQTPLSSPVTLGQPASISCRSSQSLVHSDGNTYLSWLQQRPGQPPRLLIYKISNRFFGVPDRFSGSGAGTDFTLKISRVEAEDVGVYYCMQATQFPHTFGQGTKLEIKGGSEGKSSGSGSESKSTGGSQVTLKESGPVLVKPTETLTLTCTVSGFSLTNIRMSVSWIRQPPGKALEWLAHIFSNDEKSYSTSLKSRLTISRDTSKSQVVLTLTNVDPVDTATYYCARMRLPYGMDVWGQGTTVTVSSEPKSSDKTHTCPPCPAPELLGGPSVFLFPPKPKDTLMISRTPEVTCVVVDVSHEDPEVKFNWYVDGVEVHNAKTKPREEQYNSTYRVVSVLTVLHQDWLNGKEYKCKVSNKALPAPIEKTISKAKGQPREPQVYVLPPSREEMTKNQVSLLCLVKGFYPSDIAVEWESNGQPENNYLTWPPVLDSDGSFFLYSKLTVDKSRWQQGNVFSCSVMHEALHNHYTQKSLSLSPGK
IC50 for BsAb cytotoxicity, H929/GFP target cells with PBMC effectors (GPRC5d): 0.0144 nM

B5: NKGB83 (antibody, human IgG1, V domains shown)
VH: EVQLVQSGAEVKKPGESLKISCKGSGYSFTSYWIGWVRQMPGKGLEWMGIIYPGDSYTRYSPSFQGQVTISADKSISTAYLQWSSLKASDTAMYYCARGGVSASGNYRALDYWGQGTLVTVSS
VL: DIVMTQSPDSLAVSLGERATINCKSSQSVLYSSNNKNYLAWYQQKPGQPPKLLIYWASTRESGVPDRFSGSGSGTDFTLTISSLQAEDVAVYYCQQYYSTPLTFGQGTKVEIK
notes: phage display panel; v-regions cloned into silent human IgG1/kappa constant regions; also called NKGB83.002
Kd (Cyno NKG2d (NKGW2.001)): 27.4 nM
koff (Cyno NKG2d (NKGW2.001)): 0.00212 s⁻¹
kon (Cyno NKG2d (NKGW2.001)): 77600 M⁻¹ s⁻¹
Kd [1]: 8.2 nM
koff [1]: 0.000941 s⁻¹
kon [1]: 114000 M⁻¹ s⁻¹

B6: N46BB4 (bispecific antibody, human IgG1, kappa)
heavy: QLQLQESGPGPVRPSETLSLTCTVSGDSIRSSSYYWGWIRQPPGKGLDWIGSIYYTGSTYYNPSLMSRVTISVDTSKNQFSLKLSSVTAADTAVYYCASPGYSSGWSIDYWGQGTLVTVSSASTKGPSVFPLAPSSKSTSGGTAALGCLVKDYFPEPVTVSWNSGALTSGVHTFPAVLQSSGLYSLSSVVTVPSSSLGTQTYICNVNHKPSNTKVDKKVEPKSCDKTHTCPPCPAPELLGGPSVFLFPPKPKDTLMISRTPEVTCVVVDVSHEDPEVKFNWYVDGVEVHNAKTKPREEQYNSTYRVVSVLTVLHQDWLNGKEYKCKVSNKALPAPIEKTISKAKGQPREPQVYVYPPSREEMTKNQVSLTCLVKGFYPSDIAVEWESNGQPENNYKTTPPVLDSDGSFALVSKLTVDKSRWQQGNVFSCSVMHEALHNHYTQKSLSLSPGK
light: DIQLTQSPSFLSASVGDRVTITCRASQGISSYLAWYQQKPGKAPKLLIYVASTLQSGVPSRFSGSGSGTEFTLTISSLQPEDFATYYCQQLNSYPRMTFGGGTKVEIKRTVAAPSVFIFPPSDEQLKSGTASVVCLLNNFYPREAKVQWKVDNALQSGNSQESVTEQDSKDSTYSLSSTLTLSKADYEKHKVYACEVTHQGLSSPVTKSFNRGEC
chain: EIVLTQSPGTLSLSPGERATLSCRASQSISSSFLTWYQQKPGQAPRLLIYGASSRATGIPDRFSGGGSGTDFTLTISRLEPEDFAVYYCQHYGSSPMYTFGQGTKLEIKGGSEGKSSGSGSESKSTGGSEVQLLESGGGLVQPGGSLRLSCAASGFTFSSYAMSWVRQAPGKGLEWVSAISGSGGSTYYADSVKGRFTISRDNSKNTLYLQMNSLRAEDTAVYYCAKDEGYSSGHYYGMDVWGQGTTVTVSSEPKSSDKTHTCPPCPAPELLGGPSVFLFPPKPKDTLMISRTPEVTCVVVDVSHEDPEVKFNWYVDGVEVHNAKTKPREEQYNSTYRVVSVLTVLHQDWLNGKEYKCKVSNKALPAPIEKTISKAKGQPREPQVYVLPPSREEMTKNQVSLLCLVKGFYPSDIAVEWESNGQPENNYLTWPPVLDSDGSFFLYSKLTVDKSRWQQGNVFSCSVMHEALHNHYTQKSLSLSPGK
IC50 for BsAb cytotoxicity, H929/GFP target cells with PBMC effectors (BCMA): 0.00153 nM

B7: N46BB10.AFU (bispecific antibody, human IgG1, kappa)
heavy: B6 heavy with V354T, Y355L, T370W, A409F, V411Y, H439R, Y440F
light: B6 light
chain: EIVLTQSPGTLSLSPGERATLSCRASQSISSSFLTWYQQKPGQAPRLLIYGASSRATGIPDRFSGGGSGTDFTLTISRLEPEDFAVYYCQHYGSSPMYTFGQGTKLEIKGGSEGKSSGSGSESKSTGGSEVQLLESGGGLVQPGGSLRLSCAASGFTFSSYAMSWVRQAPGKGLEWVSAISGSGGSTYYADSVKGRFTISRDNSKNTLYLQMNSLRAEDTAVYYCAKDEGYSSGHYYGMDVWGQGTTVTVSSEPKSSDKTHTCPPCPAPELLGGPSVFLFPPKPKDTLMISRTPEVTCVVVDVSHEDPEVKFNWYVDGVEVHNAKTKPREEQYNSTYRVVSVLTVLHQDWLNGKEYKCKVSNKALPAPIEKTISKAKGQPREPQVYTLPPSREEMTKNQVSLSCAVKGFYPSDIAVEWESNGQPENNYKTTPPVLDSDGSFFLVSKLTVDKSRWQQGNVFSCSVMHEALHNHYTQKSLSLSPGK
EC50 of cytotoxicity (hypoxia study, PBMC on MM1R/GFP cells) [2]: 0.006 nM

B8: N46BB14 (bispecific antibody, human IgG1, kappa, L234A L235A)
heavy: B6 heavy with L238A, L239A, D269S, V354T, Y355L, T370W, A409F, V411Y, H439R, Y440F
light: B6 light
chain: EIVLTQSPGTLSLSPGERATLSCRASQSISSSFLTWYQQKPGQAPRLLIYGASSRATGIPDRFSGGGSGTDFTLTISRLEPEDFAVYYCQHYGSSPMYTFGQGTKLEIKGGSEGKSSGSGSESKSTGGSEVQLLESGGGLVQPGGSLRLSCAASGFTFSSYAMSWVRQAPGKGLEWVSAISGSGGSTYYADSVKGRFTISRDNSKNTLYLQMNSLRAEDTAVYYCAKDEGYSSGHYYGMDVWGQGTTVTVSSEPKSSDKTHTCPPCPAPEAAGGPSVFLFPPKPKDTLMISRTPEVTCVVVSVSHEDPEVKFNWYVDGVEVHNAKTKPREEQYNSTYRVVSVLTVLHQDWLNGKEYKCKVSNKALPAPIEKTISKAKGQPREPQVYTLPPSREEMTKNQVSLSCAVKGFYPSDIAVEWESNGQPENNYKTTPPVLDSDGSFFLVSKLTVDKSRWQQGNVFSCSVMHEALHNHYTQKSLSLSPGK
EC50 of cytotoxicity (hypoxia study, PBMC on MM1R/GFP cells, 48-hour endpoint) [2]: ~1.19 nM

B9: N46BB10 (bispecific antibody, human IgG1, kappa)
heavy: B6 heavy with V354T, Y355L, T370W, A409F, V411Y, H439R, Y440F
light: B6 light
chain: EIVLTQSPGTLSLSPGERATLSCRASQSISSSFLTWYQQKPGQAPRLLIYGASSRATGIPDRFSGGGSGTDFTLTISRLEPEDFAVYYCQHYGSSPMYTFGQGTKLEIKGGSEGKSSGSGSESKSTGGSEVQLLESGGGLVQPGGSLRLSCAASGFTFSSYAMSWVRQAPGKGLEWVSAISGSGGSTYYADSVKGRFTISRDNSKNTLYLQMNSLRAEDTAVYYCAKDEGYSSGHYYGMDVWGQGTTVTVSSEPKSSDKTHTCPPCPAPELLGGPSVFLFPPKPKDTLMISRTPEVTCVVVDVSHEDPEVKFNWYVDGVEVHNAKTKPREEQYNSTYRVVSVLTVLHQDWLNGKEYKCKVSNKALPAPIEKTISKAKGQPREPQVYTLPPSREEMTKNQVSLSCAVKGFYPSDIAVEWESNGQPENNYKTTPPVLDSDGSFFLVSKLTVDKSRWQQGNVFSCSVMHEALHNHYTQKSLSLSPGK
EC50 of cytotoxicity (hypoxia study, PBMC on MM1R/GFP cells) [2]: ~0.07 nM

B10: NG2GB19 (bispecific antibody, human IgG1, lambda)
heavy: not shown
light: SYVLTQPPSVSVAPGQTARITCGGNNIGSKSVHWYQQKAGQAPVLVVYDDSDRPSGIPERFSGSNSGNTATLTISRVEAGDEADYYCQVWDGRSDHVVFGGGTKLTVLGQPKAAPSVTLFPPSSEELQANKATLVCLISDFYPGAVTVAWKADSSPVKAGVETTTPSKQSNNKYAASSYLSLTPEQWKSHRSYSCQVTHEGSTVEKTVAPTECS
IC50 for BsAb cytotoxicity, H929/GFP target cells with PBMC effectors (GPRC5d): 0.0199 nM

B11: NG2BB10 (bispecific antibody, human IgG1, lambda)
heavy: EVQLLESGGGLVQPGGSLRLSCAASGFTFSIYAMTWVRQAPGKGLEWVSIISGSGDHTFYADSVKGRFTISRDNSRNTLYLQMDSLRAEDTAVYYCAKEGKWVQLSHFANWGQGTLVTVSSASTKGPSVFPLAPSSKSTSGGTAALGCLVKDYFPEPVTVSWNSGALTSGVHTFPAVLQSSGLYSLSSVVTVPSSSLGTQTYICNVNHKPSNTKVDKKVEPKSCDKTHTCPPCPAPELLGGPSVFLFPPKPKDTLMISRTPEVTCVVVDVSHEDPEVKFNWYVDGVEVHNAKTKPREEQYNSTYRVVSVLTVLHQDWLNGKEYKCKVSNKALPAPIEKTISKAKGQPREPQVYVYPPSREEMTKNQVSLTCLVKGFYPSDIAVEWESNGQPENNYKTTPPVLDSDGSFALVSKLTVDKSRWQQGNVFSCSVMHEALHNHYTQKSLSLSPGK
light: B10 light
chain: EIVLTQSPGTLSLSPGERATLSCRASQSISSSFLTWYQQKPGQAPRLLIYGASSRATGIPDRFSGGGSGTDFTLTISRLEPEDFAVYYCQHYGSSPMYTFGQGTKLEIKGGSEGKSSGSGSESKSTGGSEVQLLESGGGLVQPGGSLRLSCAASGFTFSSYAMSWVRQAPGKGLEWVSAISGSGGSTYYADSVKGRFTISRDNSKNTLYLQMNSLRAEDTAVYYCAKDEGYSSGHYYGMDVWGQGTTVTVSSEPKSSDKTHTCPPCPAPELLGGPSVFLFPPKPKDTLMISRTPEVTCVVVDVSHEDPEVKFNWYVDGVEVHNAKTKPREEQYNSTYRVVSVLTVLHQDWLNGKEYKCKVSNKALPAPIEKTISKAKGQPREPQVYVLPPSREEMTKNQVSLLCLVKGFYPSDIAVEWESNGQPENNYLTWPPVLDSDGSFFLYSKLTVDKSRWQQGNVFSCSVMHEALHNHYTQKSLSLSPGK
IC50 for BsAb cytotoxicity, H929/GFP target cells with PBMC effectors (BCMA): 0.0209 nM

B12: NG2GB23 (bispecific antibody, human IgG1, lambda)
heavy: B11 heavy
light: B10 light
chain: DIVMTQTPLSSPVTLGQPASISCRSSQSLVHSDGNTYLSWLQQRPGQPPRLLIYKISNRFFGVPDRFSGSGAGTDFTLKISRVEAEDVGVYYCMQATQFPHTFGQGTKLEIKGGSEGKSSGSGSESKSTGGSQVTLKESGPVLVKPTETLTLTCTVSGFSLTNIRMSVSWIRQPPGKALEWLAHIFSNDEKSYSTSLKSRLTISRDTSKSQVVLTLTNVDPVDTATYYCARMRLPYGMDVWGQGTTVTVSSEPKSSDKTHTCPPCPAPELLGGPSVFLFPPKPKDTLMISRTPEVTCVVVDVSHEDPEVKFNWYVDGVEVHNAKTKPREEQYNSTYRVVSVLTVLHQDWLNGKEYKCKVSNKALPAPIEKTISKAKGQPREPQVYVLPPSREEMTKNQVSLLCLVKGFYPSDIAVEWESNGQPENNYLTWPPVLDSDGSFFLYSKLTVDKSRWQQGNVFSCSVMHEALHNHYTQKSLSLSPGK
IC50 for BsAb cytotoxicity, H929/GFP target cells with PBMC effectors (GPRC5d): 0.00337 nM
